{"source": "paper PMC7978432", "target": "SARS-CoV-2 S2GΔHR2-5GS-1TD0 (SARS-CoV-2 | not stated) (UniProt P0DTC2)", "assay": "native gel or EMSA"}
{"substance": "SARS-CoV-2 S2GΔHR2-5GS-1TD0 (from UniProt P0DTC2 14-1149)", "values": [{"measurement": "stoichiometry N", "value": 3}]}
